In the assay the target is PDZ1/2 domain. In words: SPR, Biacore 3000; PDZ1/2 amine-coupled to the chip, peptide as analyte, 1:1 binding model.
Sequence of PDZ1/2 domain (P78352 65-246): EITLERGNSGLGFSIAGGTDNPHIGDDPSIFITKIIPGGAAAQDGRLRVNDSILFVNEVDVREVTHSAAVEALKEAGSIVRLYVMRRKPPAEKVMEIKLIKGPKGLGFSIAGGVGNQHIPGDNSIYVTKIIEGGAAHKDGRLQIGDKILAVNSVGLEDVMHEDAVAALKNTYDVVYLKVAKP

B1: control chimeric peptide NA-1 (peptide)
peptide: YGRKKRRQRRRKLSSIESDV
modifications: not checked
Take B1: the dissociation constant (Kd) – broadly, the equilibrium constant for the complex coming apart – came out at 75.3 nM.

For the origin of these results see patent publication US20190134143A1.
